67 sequences from the supplement of paper PMC10724198 can be followed below.

In the data set the test system is Saccharomyces cerevisiae. The data set is described as follows: protein stability index of tFT-peptide fusion (C-terminal peptide) (PSI (0-1 scale)); higher = more stable (slower turnover). To be noted: temperature: 30 C. On the procedure: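 MPS profiling in S. cerevisiae of the yeast C-terminome library: the last 12 aa of each annotated ORF are fused to the C-terminus of a sfGFP-mCherry timer, after a GGGS linker. Cells are FACS-sorted into 8 mCherry/sfGFP bins and deep-sequenced. PSI runs from 0 (unstable) to 1 (stable); wild type and das1Δ backgrounds, two technical replicates each.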

Setting [1] is: genetic background: das1 deletion.

± gives the standard deviation of the averaged measurements.

Consider NLANDEQPLHNL [MDM30 C-terminal 12 aa], for which the protein stability index worked out at 0.699 ± 0.02 under setting [1] and 0.659 ± 0.03 (genetic background: wild type).
In the same order, the values of NLGYSKDQVFKF [MCR1 C-terminal 12 aa] are 0.708 ± 0.0082 and 0.688 ± 0.039.
In the case of NMIIDTLGGNEK [COQ6 C-terminal 12 aa], the protein stability index was found to be 0.735 ± 0.019 under setting [1] and 0.692 ± 0.013 (genetic background: wild type).
Taken in the same sequence, the figures for NNLNTNTSTTTQ [MIT1 C-terminal 12 aa] were 0.682 ± 0.011 and 0.68 ± 0.065.
In the same order, the values of NNLQSFYFDNSN [BCK2 C-terminal 12 aa] are 0.689 ± 0.018 and 0.706 ± 0.03.
In the same order, the values of NNNIANDYMDID [YML053C C-terminal 12 aa] are 0.7268 ± 0.005 and 0.815 ± 0.067.
Take “NNRYKNFSPKRL [YHR071C-A C-terminal 12 aa]”: the protein stability index reads like this: under setting [1], 0.746 ± 0.011; (genetic background: wild type) 0.683 ± 0.034.
In the same order, the values of NPTIGRDSKKAV [PEX30 C-terminal 12 aa] are 0.694 ± 0.011 and 0.702 ± 0.015.
On to “NPWKSQIRDWKN [YBL100W-C C-terminal 12 aa]”, for which the protein stability index stood at 0.704 ± 0.018 under setting [1] and 0.77 ± 0.031 (genetic background: wild type).
In the same order, the values of NRLKGQNSHQQR [RGS2 C-terminal 12 aa] are 0.7072 ± 0.0026 and 0.726 ± 0.035.
Take NRRSDKNLPDAT [STE12 C-terminal 12 aa]: the protein stability index worked out at 0.7085 ± 0.002 under setting [1] and 0.694 ± 0.0077 (genetic background: wild type).
In the same order, the values of NSEKDQVPILSS [SSK22 C-terminal 12 aa] are 0.702 ± 0.011 and 0.729 ± 0.041.
On to NSTSSKDKKKKN [SES1 C-terminal 12 aa], for which the protein stability index reads like this: under setting [1], 0.707 ± 0.008; (genetic background: wild type) 0.7314 ± 0.0025.
Taken in the same sequence, the figures for NTAKATYDLYTN [GPI8 C-terminal 12 aa] were 0.686 ± 0.012 and 0.6703 ± 0.0046.
Taken in the same sequence, the figures for NTQVDDETKKNN [YDC1 C-terminal 12 aa] were 0.7078 ± 0.0056 and 0.7367 ± 0.0051.
Taken in the same sequence, the figures for NVDVVTPNSIFI [TMA17 C-terminal 12 aa] were 0.67 ± 0.036 and 0.6982 ± 0.0046.
For the sequence NVKVKALQRMTW [TIS11 C-terminal 12 aa], the protein stability index turned out to be 0.6967 ± 0.0018 under setting [1] and 0.729 ± 0.039 (genetic background: wild type).
In the same order, the values of NVPSFGQDELDQ [MPS3 C-terminal 12 aa] are 0.699 ± 0.016 and 0.688 ± 0.011.
Turning to NVTGSANNGTHI [SVS1 C-terminal 12 aa], the protein stability index worked out at 0.708 ± 0.032 under setting [1] and 0.671 ± 0.016 (genetic background: wild type).
Taken in the same sequence, the figures for NYDLQKLYDKID [QDR3 C-terminal 12 aa] were 0.705 ± 0.037 and 0.6544 ± 0.0034.
Taken in the same sequence, the figures for NYLKKHSEKQDA [ATP19 C-terminal 12 aa] were 0.709 ± 0.022 and 0.723 ± 0.066.
Taken in the same sequence, the figures for PEALIKSMTSKL [SPS19 C-terminal 12 aa] were 0.712 ± 0.038 and 0.725 ± 0.18.
For PEKGSGFNTNLG [DCS2 C-terminal 12 aa], the protein stability index by setting is: under setting [1], 0.6973 ± 0.0014; (genetic background: wild type) 0.738 ± 0.025.
Take PKRGGLFGFGRL [JIP4 C-terminal 12 aa]: the protein stability index was found to be 0.7853 ± 0.0046 under setting [1] and 0.762 ± 0.023 (genetic background: wild type).
Taken in the same sequence, the figures for PLGEKFLNISNS [TEN1 C-terminal 12 aa] were 0.7047 ± 0.0035 and 0.694 ± 0.013.
Regarding PLMTVLGLEKKK [DPC13 C-terminal 12 aa], the protein stability index by setting is: under setting [1], 0.703 ± 0.021; (genetic background: wild type) 0.675 ± 0.064.
Taken in the same sequence, the figures for PLTRFHSCPITA [ECM13 C-terminal 12 aa] were 0.275 ± 0.035 and 0.301 ± 0.013.
Consider PPASESNKGINE [YDR008C C-terminal 12 aa], for which the protein stability index by setting is: under setting [1], 0.694 ± 0.013; (genetic background: wild type) 0.661 ± 0.032.
In the same order, the values of PPKSIFDTDDDD [RCN1 C-terminal 12 aa] are 0.741 ± 0.025 and 0.714 ± 0.054.
Taken in the same sequence, the figures for PSPGFHMYGCHT [YLR156W C-terminal 12 aa] were 0.708 ± 0.022 and 0.695 ± 0.0084.
In the same order, the values of PSYAKVQEFATP [NEO1 C-terminal 12 aa] are 0.71 ± 0.0097 and 0.684 ± 0.0059.
Regarding PVTPAVSKRYQP [YER084W C-terminal 12 aa], the protein stability index reads like this: under setting [1], 0.715 ± 0.0072; (genetic background: wild type) 0.6939 ± 0.003.
In the same order, the values of QAIEDKLNKMSR [BIL1 C-terminal 12 aa] are 0.686 ± 0.026 and 0.683 ± 0.018.
In the same order, the values of “QALFVLYYLYSI [YDR406W-A C-terminal 12 aa]” are 0.428 ± 0.018 and 0.445 ± 0.013.
Taken in the same sequence, the figures for QDKQVKSWWRFW [CBP4 C-terminal 12 aa] were 0.762 ± 0.016 and 0.7144 ± 0.0053.
As for QEANDDLMIDVN [ENP1 C-terminal 12 aa], the protein stability index worked out at 0.678 ± 0.045 under setting [1] and 0.699 ± 0.015 (genetic background: wild type).
With QGQKFIHDNNTN [YMR245W C-terminal 12 aa], the protein stability index by setting is: under setting [1], 0.673 ± 0.031; (genetic background: wild type) 0.646 ± 0.018.
For the sequence QHIKTHKKHGDI [MSN2 C-terminal 12 aa], the protein stability index worked out at 0.67783 ± 0.00033 under setting [1] and 0.667 ± 0.014 (genetic background: wild type).
Regarding QIDKLLTVLDSL [RTP1 C-terminal 12 aa], the protein stability index worked out at 0.717 ± 0.023 under setting [1] and 0.691 ± 0.038 (genetic background: wild type).
In the same order, the values of QIIYYIARSKGL [MEC3 C-terminal 12 aa] are 0.665 ± 0.058 and 0.668 ± 0.035.
Taken in the same sequence, the figures for QIRSVFSGVYGG [ASP3-1 C-terminal 12 aa] were 0.691 ± 0.013 and 0.689 ± 0.049.
In the same order, the values of QKAKLNKLDSKK [NOP7 C-terminal 12 aa] are 0.677 ± 0.0057 and 0.704 ± 0.068.
Consider QKEPNDQIDVEE [GPN3 C-terminal 12 aa], for which the protein stability index amounted to 0.673 ± 0.025 under setting [1] and 0.698 ± 0.042 (genetic background: wild type).
Taken in the same sequence, the figures for QKRIQRKKMNEM [AIM23 C-terminal 12 aa] were 0.71243 ± 0.0002 and 0.663 ± 0.014.
Taken in the same sequence, the figures for QKYLEELQKKKF [YET2 C-terminal 12 aa] were 0.712 ± 0.023 and 0.7424 ± 0.0019.
In the same order, the values of QLIDIAKKMGIL [BIR1 C-terminal 12 aa] are 0.678 ± 0.051 and 0.276 ± 0.0083.
As to QLQMILFGKKFK [PET9 C-terminal 12 aa], the protein stability index runs as follows: under setting [1], 0.711 ± 0.016; (genetic background: wild type) 0.701 ± 0.021.
For QNDRRSVLKKYI [YER010C C-terminal 12 aa], the protein stability index by setting is: under setting [1], 0.69 ± 0.025; (genetic background: wild type) 0.666 ± 0.021.
Take QNQDEPITENFE [TUB2 C-terminal 12 aa]: the protein stability index was found to be 0.718 ± 0.016 under setting [1] and 0.718 ± 0.025 (genetic background: wild type).
In the same order, the values of QPKIEINVDQYD [SPC1 C-terminal 12 aa] are 0.691 ± 0.047 and 0.6919 ± 0.0036.
Taken in the same sequence, the figures for QQPNQNQNQNSK [FIP1 C-terminal 12 aa] were 0.738 ± 0.049 and 0.676 ± 0.019.
Taken in the same sequence, the figures for QQSPHPVVDNDK [KIP2 C-terminal 12 aa] were 0.6922 ± 0.0065 and 0.682 ± 0.035.
Sequence QRIHQTLEVPNL [FAR1 C-terminal 12 aa] registered a protein stability index under setting [1] of 0.708 ± 0.01 and a protein stability index (genetic background: wild type) of 0.692 ± 0.06.
In the same order, the values of QRTVKQEGNKGG [GZF3 C-terminal 12 aa] are 0.712 ± 0.021 and 0.69986 ± 0.00047.
In the same order, the values of QSILACCQESNK [LCB1 C-terminal 12 aa] are 0.702 ± 0.0093 and 0.645 ± 0.0071.
In the same order, the values of QSPLMDMLAPQL [TOM6 C-terminal 12 aa] are 0.706 ± 0.015 and 0.7117 ± 0.00029.
Turning to QSQYPDVGIPAI [YAR023C C-terminal 12 aa], the protein stability index amounted to 0.7082 ± 0.0034 under setting [1] and 0.669 ± 0.011 (genetic background: wild type).
In the case of QSSHFGQVDEII [DUR3 C-terminal 12 aa], the protein stability index runs as follows: under setting [1], 0.684 ± 0.046; (genetic background: wild type) 0.726 ± 0.04.
In the same order, the values of “QSTAVFFTNKTD [YER076W-A C-terminal 12 aa]” are 0.707 ± 0.018 and 0.684 ± 0.046.
As for QTDGMGLVSWWE [RPC25 C-terminal 12 aa], the protein stability index worked out at 0.751 ± 0.011 under setting [1] and 0.749 ± 0.041 (genetic background: wild type).
In the same order, the values of QTILFAAFLPPA [GPI18 C-terminal 12 aa] are 0.696 ± 0.025 and 0.682 ± 0.008.
In the case of QTTFLATAIVLC [YOR331C C-terminal 12 aa], the protein stability index runs as follows: under setting [1], 0.441 ± 0.018; (genetic background: wild type) 0.4167 ± 0.0014.
Consider QTTRMLNDLIVS [MGA2 C-terminal 12 aa], for which the protein stability index reads like this: under setting [1], 0.664 ± 0.01; (genetic background: wild type) 0.667 ± 0.017.
In the same order, the values of QVHPSRQELSFT [DON1 C-terminal 12 aa] are 0.7176 ± 0.0016 and 0.701 ± 0.069.
Consider QVTWHKHSPRIQ [YKL202W C-terminal 12 aa], for which the protein stability index runs as follows: under setting [1], 0.713 ± 0.024; (genetic background: wild type) 0.7036 ± 0.0056.
In the same order, the values of RCSETKQQVMNS [BTT1 C-terminal 12 aa] are 0.669 ± 0.033 and 0.691 ± 0.0026.
In the same order, the values of REGVVPPVGITN [EGO4 C-terminal 12 aa] are 0.706 ± 0.031 and 0.66 ± 0.024.
